Laboratory results published in publication PMC5404317.

B1: PINK1-V5 WT (V5-6xHis-tagged PINK1 wild type) [human] / CDC37 [human (endogenous in HeLa)] (parent)
chain 1: MAVRQALGRGLQLGRALLLRFTGKPGRAYGLGRPGPAAGCVRGERPGWAAGPGAEPRRVGLGLPNRLRFFRQSVAGLAARLQRQFVVRAWGCAGPCGRAVFLAFGLGLGLIEEKQAESRRAVSACQEIQAIFTQKSKPGPDPLDTRRLQGFRLEEYLIGQSIGKGCSAAVYEATMPTLPQNLEVTKSTGLLPGRGPGTSAPGEGQERAPGAPAFPLAIKMMWNISAGSSSEAILNTMSQELVPASRVALAGEYGAVTYRKSKRGPKQLAPHPNIIRVLRAFTSSVPLLPGALVDYPDVLPSRLHPEGLGHGRTLFLVMKNYPCTLRQYLCVNTPSPRLAAMMLLQLLEGVDHLVQQGIAHRDLKSDNILVELDPDGCPWLVIADFGCCLADESIGLQLPFSSWYVDRGGNGCLMAPEVSTARPGPRAVIDYSKADAWAVGAIAYEIFGLVNPFYGQGKAHLESRSYQEAQLPALPESVPPDVRQLVRALLQREASKRPSARVAANVLHLSLWGEHILALKNLKLDKMVGWLLQQSAATLLANRLTEKCCVETKMKMLFLANLECETLCQAALLLCSWRAAL
chain 2: MVDYSVWDHIEVSDDEDETHPNIDTASLFRWRHQARVERMEQFQKEKEELDRGCRECKRKVAECQRKLKELEVAEGGKAELERLQAEAQQLRKEERSWEQKLEEMRKKEKSMPWNVDTLSKDGFSKSMVNTKPEKTEEDSEEVREQKHKTFVEKYEKQIKHFGMLRRWDDSQKYLSDNVHLVCEETANYLVIWCIDLEVEEKCALMEQVAHQTIVMQFILELAKSLKVDPRACFRQFFTKIKTADRQYMEGFNDELEAFKERVRGRAKLRIEKAMKEYEEEERKKRLGPGGLDPVEVYESLPEELQKCFDVKDVQMLQDAISKMDPTDAKYHMQRCIDSGLWVPNSKASEAKEGEEAGPGDPLLEAVPKTGDEKDVSV
B2: PINK1-V5 WT (V5-6xHis-tagged PINK1 wild type) [human] / TOM40 [human (endogenous in HeLa)] (parent)
chain 1: B1 chain 1
chain 2: MGNVLAASSPPAGPPPPPAPALVGLPPPPPSPPGFTLPPLGGSLGAGTSTSRSSERTPGAATASASGAAEDGACGCLPNPGTFEECHRKCKELFPIQMEGVKLTVNKGLSNHFQVNHTVALSTIGESNYHFGVTYVGTKQLSPTEAFPVLVGDMDNSGSLNAQVIHQLGPGLRSKMAIQTQQSKFVNWQVDGEYRGSDFTAAVTLGNPDVLVGSGILVAHYLQSITPCLALGGELVYHRRPGEEGTVMSLAGKYTLNNWLATVTLGQAGMHATYYHKASDQLQVGVEFEASTRMQDTSVSFGYQLDLPKANLLFKGSVDSNWIVGATLEKKLPPLPLTLALGAFLNHRKNKFQCGFGLTIG

Tests used:
[1] = variants of: B1; test: co-immunoprecipitation (V5 agarose) with western blot quantification; conditions: HeLa cells, read off a plot
[2] = variants of: B2; test: as above; conditions: HeLa cells, read off a plot

response (cdc37/V5 ratio) ([1]; 10 μM CCCP for 2 h)	response (cdc37/V5 ratio) ([1]; untreated (no CCCP))	response (Tom40/V5 ratio) ([2]; 10 μM CCCP for 2 h)	response (Tom40/V5 ratio) ([2]; untreated (no CCCP))	Variant
0.66	0.61			chain 1 I368N
0.55	0.58			chain 1 L347P
		0.19	0.35	chain 1 L347P
		0.32	0.42	chain 1 I368N
